According to the supplement of paper PMC9112550, “Optimization of the antimicrobial peptide Bac7 by deep mutational scanning” (BMC Biology, 2022):

Tested on: Escherichia coli TOP10
Test: shrunken log2 fold change of peptide-encoding DNA abundance (4.5 h post-induction vs induction); higher = less antimicrobial activity (less host growth inhibition)
Settings: time post-induction: 4.5 h; library: site-saturation at positions 5, 18, 19, 20
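Note: peptides expressed intracellularly from a pBAD plasmid library in pooled LB shake-flask culture, induced with 0.3% L-arabinose, DNA abundance read by NGS, three biological replicates, DESeq2 with apeglm shrinkage.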

Sequence | shrunken log2 fold change
RRIRERPPRLPRPRPRPSGFPRP | 0.0785
RRIRWRPPRLPRPRPRPKYKPRP | -0.558
RRIRERPPRLPRPRPRPSRNPRP | -0.207
RRIRMRPPRLPRPRPRPCLQPRP | -0.0178
RRIRVRPPRLPRPRPRPIDQPRP | 0.216
RRIRARPPRLPRPRPRPAEEPRP | 0.697
RRIRRRPPRLPRPRPRPMYHPRP | -0.159
RRIRPRPPRLPRPRPRPASNPRP | -0.231
RRIRARPPRLPRPRPRPCQAPRP | 0.483
RRIRDRPPRLPRPRPRPGMTPRP | 0.0654
RRIRCRPPRLPRPRPRPHHFPRP | -0.219
RRIRVRPPRLPRPRPRPFLLPRP | -0.769
RRIRHRPPRLPRPRPRPPYCPRP | -0.0539
RRIRQRPPRLPRPRPRPILEPRP | -0.536
RRIRSRPPRLPRPRPRPCHTPRP | 0.00383
RRIRSRPPRLPRPRPRPWWDPRP | -0.137
RRIRSRPPRLPRPRPRPWAAPRP | 0.327
RRIRERPPRLPRPRPRPSYVPRP | -0.264
RRIRYRPPRLPRPRPRPWSYPRP | -0.23
RRIRRRPPRLPRPRPRPPWPPRP | 0.667
RRIRERPPRLPRPRPRPHFTPRP | -0.246
RRIRDRPPRLPRPRPRPDELPRP | 0.414
RRIRPRPPRLPRPRPRPMPSPRP | -0.0976
RRIRHRPPRLPRPRPRPWELPRP | -0.0835
RRIRFRPPRLPRPRPRPKWTPRP | -0.196

Sequence | shrunken log2 fold change
RRIRNRPPRLPRPRPRPSISPRP | -0.256
RRIRIRPPRLPRPRPRPEPMPRP | 0.132
RRIRSRPPRLPRPRPRPFACPRP | -0.655
RRIRVRPPRLPRPRPRPARYPRP | 0.0291
RRIRGRPPRLPRPRPRPVWFPRP | 0.239
RRIRFRPPRLPRPRPRPPEKPRP | 0.078
RRIRIRPPRLPRPRPRPPFRPRP | -0.0473
RRIRYRPPRLPRPRPRPVLFPRP | -0.598
RRIRCRPPRLPRPRPRPNLRPRP | -0.315
RRIRRRPPRLPRPRPRPSVQPRP | 0.184
RRIRERPPRLPRPRPRPGVVPRP | -0.0414
RRIRDRPPRLPRPRPRPQNRPRP | -0.28
RRIRNRPPRLPRPRPRPVVSPRP | -0.153
RRIRHRPPRLPRPRPRPCPKPRP | 0.03
RRIRQRPPRLPRPRPRPFDVPRP | 0.028
RRIRMRPPRLPRPRPRPWAKPRP | 0.0317
RRIRYRPPRLPRPRPRPYCKPRP | -1.32
RRIRRRPPRLPRPRPRPHPIPRP | 0.35
RRIRDRPPRLPRPRPRPQVYPRP | 0.175
RRIRIRPPRLPRPRPRPQQFPRP | -0.709
RRIRPRPPRLPRPRPRPLVTPRP | -0.302
RRIRQRPPRLPRPRPRPMVNPRP | -0.2
RRIRNRPPRLPRPRPRPMMQPRP | -0.208
RRIRARPPRLPRPRPRPPVEPRP | 0.292
RRIRIRPPRLPRPRPRPTYQPRP | -0.715

Sequence | shrunken log2 fold change
RRIRSRPPRLPRPRPRPYQTPRP | -0.0406
RRIRPRPPRLPRPRPRPTDHPRP | -0.114
RRIRRRPPRLPRPRPRPVFCPRP | 0.291
RRIRERPPRLPRPRPRPWWHPRP | -0.523
RRIRHRPPRLPRPRPRPCCWPRP | 0.015
RRIRQRPPRLPRPRPRPFILPRP | -0.635
RRIRYRPPRLPRPRPRPEHMPRP | -0.304
RRIRFRPPRLPRPRPRPGHTPRP | -0.445
RRIRYRPPRLPRPRPRPTPRPRP | 0.886
RRIRSRPPRLPRPRPRPCCFPRP | -0.0695
RRIRQRPPRLPRPRPRPDFGPRP | 0.0964
RRIRDRPPRLPRPRPRPADWPRP | 0.305
RRIRTRPPRLPRPRPRPSVTPRP | -0.0217
RRIRDRPPRLPRPRPRPYLCPRP | -0.148
RRIRARPPRLPRPRPRPTPHPRP | 0.598
RRIRARPPRLPRPRPRPPCTPRP | 0.164
RRIRQRPPRLPRPRPRPIIKPRP | -0.111
RRIRFRPPRLPRPRPRPHKNPRP | -0.389
RRIRHRPPRLPRPRPRPQLRPRP | -0.343
RRIRNRPPRLPRPRPRPWAMPRP | -0.175
RRIRVRPPRLPRPRPRPLVWPRP | 0.115
RRIRWRPPRLPRPRPRPHSFPRP | -0.266
RRIRERPPRLPRPRPRPWYGPRP | -1.02
RRIRTRPPRLPRPRPRPKEPPRP | -0.00172
RRIRNRPPRLPRPRPRPIWMPRP | 0.178

Sequence | shrunken log2 fold change
RRIRTRPPRLPRPRPRPFQGPRP | -0.00192
RRIRKRPPRLPRPRPRPQHNPRP | -0.145
RRIRGRPPRLPRPRPRPTTNPRP | 0.878
RRIRVRPPRLPRPRPRPIWIPRP | 0.0696
RRIRERPPRLPRPRPRPYPNPRP | -1.19
RRIRERPPRLPRPRPRPWQAPRP | 0.00281
RRIRLRPPRLPRPRPRPFCFPRP | -0.213
RRIRDRPPRLPRPRPRPFHRPRP | -0.261
RRIRKRPPRLPRPRPRPASLPRP | -0.23
RRIRCRPPRLPRPRPRPPKCPRP | 0.203
RRIRTRPPRLPRPRPRPLQLPRP | -0.167
RRIRYRPPRLPRPRPRPLKIPRP | -0.134
RRIRVRPPRLPRPRPRPYCKPRP | -1.15
RRIRTRPPRLPRPRPRPWTWPRP | -0.0696
RRIRARPPRLPRPRPRPMSVPRP | 0.121
RRIRNRPPRLPRPRPRPRVSPRP | 0.0988
RRIRPRPPRLPRPRPRPFLDPRP | -0.413
RRIRLRPPRLPRPRPRPQGSPRP | -0.0921
RRIRFRPPRLPRPRPRPCYHPRP | -0.859
RRIRLRPPRLPRPRPRPQKTPRP | -0.03
RRIRGRPPRLPRPRPRPHARPRP | 0.629
RRIRTRPPRLPRPRPRPHDVPRP | 0.00489
RRIRDRPPRLPRPRPRPNIAPRP | 0.169
RRIRPRPPRLPRPRPRPPPGPRP | 0.816
RRIRGRPPRLPRPRPRPDKAPRP | -0.00124

Sequence | shrunken log2 fold change
RRIRQRPPRLPRPRPRPDQSPRP | -0.222
RRIRTRPPRLPRPRPRPPMRPRP | 0.957
RRIRWRPPRLPRPRPRPMKWPRP | 0.0452
RRIRIRPPRLPRPRPRPHNRPRP | -0.573
RRIRSRPPRLPRPRPRPSAIPRP | 0.0168
RRIRERPPRLPRPRPRPFTLPRP | -0.21
RRIRCRPPRLPRPRPRPWWYPRP | -0.136
RRIRMRPPRLPRPRPRPLSLPRP | 0.0457
RRIRNRPPRLPRPRPRPLFYPRP | -0.586
RRIRERPPRLPRPRPRPCKNPRP | -0.121
RRIRDRPPRLPRPRPRPVKYPRP | -0.346
RRIRARPPRLPRPRPRPDTPPRP | 0.331
RRIRRRPPRLPRPRPRPEMWPRP | 1.14
RRIRERPPRLPRPRPRPNGRPRP | -0.033
RRIRLRPPRLPRPRPRPMGMPRP | 0.0771
RRIRHRPPRLPRPRPRPGRGPRP | 0.529
RRIRERPPRLPRPRPRPACVPRP | 0.24
RRIRTRPPRLPRPRPRPVHHPRP | -0.321
RRIRTRPPRLPRPRPRPMRTPRP | 0.276
RRIRWRPPRLPRPRPRPCCQPRP | 0.0191
RRIRLRPPRLPRPRPRPANYPRP | -0.032
RRIRLRPPRLPRPRPRPARNPRP | 0.483
RRIRMRPPRLPRPRPRPMSMPRP | 0.11
RRIRERPPRLPRPRPRPLMLPRP | -0.813
RRIRLRPPRLPRPRPRPKFHPRP | -0.174
